Measured values: patent publication CN111592595A (UNIV NANJING MEDICAL, dated 2020)

Experiments:
SARS-Cov-1-RBD-hFc蛋白 = target: T1, SARS-Cov-1-RBD-hFc蛋白 (SARS-Cov-1, UniProt P59594 306-527); assay: phage ELISA on coated antigen, anti-M13-HRP detection
T1 construct: domain: RBD

SARS-Cov-2-RBD-his蛋白 = SARS-Cov-2-RBD-his蛋白 (SARS-Cov-2, UniProt P0DTC2 319-541)
[1] = target: SARS-Cov-2 spike (on lentiviral pseudovirus) (SARS-Cov-2, UniProt P0DTC2 14-1273); assay: cell-based or functional assay

Binder | binding result (SARS-Cov-1-RBD-hFc蛋白) | Kd (SARS-Cov-2-RBD-his蛋白) | IC50 of inhibition of pseudovirus infection of ACE2-CHO cells (Luciferase活性) [1]
4A3噬菌体 (4A3 scFv displayed on phage) (scFv, also called 4A3抗体; 4A3的噬菌体) scFv: EVQLLESGGGLVQPGGSLRLSCAASGFTFSSYAMSWVRQAPGKGLEWVSSIASSGYYTDYADSVKGRFTISRDNSKNTLYLQMNSLRAEDTAVYYCAKDADSFDYWGQGTLVTVSSGGGGSGGGGSGGGGSDIQMTQSPSSLSASVGDRVTITCRASQSISSYLNWYQQKPGKAPKLLIYAASYLQSGVPSRFSGSGSGTDFTLTISSLQPEDFATYYCQQAYSAPSTFGQGTKVEIK | no binding (tested: 5μg/ml coating) | – | –
4A3 IgG重组蛋白 (human IgG1) (antibody, V domains shown) VH: EVQLLESGGGLVQPGGSLRLSCAASGFTFSSYAMSWVRQAPGKGLEWVSSIASSGYYTDYADSVKGRFTISRDNSKNTLYLQMNSLRAEDTAVYYCAKDADSFDYWGQGTLVTVSS VL: DIQMTQSPSSLSASVGDRVTITCRASQSISSYLNWYQQKPGKAPKLLIYAASYLQSGVPSRFSGSGSGTDFTLTISSLQPEDFATYYCQQAYSAPSTFGQGTKVEIK | – | 3.62 nM | 0.28 µg/mL
